Measurements: US20250027945A1 (University of California, published 2025)

How the values were obtained:
[1] = target: T1, human RYK on the surface of human tumor cell lines (human, UniProt P34925 46-607); assay: flow cytometry, H292 cells (lung), 5 ug/ml 2-D11-Alexa647; line unmarked (no staining)
T1 construct: whole, on cells; Endogenous expression
Description: (§1) Table 1 provides the flow cytometry data on various cancer cell lines stained with fluorochrome-conjugated 2-D11, as depicted in FIG. 8. The name of each cell line is listed in the first column and the tissue of origin is listed in the second column. Binding of the 2-D11 mAb to human RYK was assessed by flow cytometric staining and analysis by staining on ice for 20 minutes with 5 μg/ml of 2-D11 anti-human RYK-Alexa647 conjugated mAb or equal amounts of isotype matched control mAb, washed, and analyzed. The median fluorescence intensity (MFI) of 2-D11 stained cells is listed in the middle column and the MFI of isotype control stained cells are listed in the in the adjacent column. Cell lines were scored as “++”, “+”, or neg (unmarked with “+”) lines based on the ratio of median fluorescence intensity (MFI) of stained cells relative to the MFI of isotype control stained cells (MFIR).
(§2) The name of each cell line is listed in the first column and the tissue of origin is listed in the second column. Binding of the 2-D11 mAb to human RYK was assessed by flow cytometric staining and analysis by staining on ice for 20 minutes with 5 μg/ml of 2-D11 anti-human RYK-Alexa647 conjugated mAb or equal amounts of isotype matched control mAb, washed and analyzed. […]

[2] = target: T2, recombinant extracellular protein of mouse RYK (mouse, UniProt Q01887 35-211); assay: immunoblot of recombinant extracellular protein on nylon membrane
T2 construct: also called mRYK; not shown: rabbit IgG tag for purification
Description: FIG. 4A illustrates experiments in which binding of 2-D11, 7-H10, 3-C12, 11-E9, 6-B5, 6-D10 and sheep anti-RYK mAb was assessed using recombinant human RYK proteins (SEQ ID NO:129) in which one amino acid that differs between human and mouse RYK within the extracellular domain was replaced with the corresponding amino acid of mouse RYK. Each recombinant protein was transferred onto nylon membrane, probed with the indicated anti-RYK mAb or Sheep anti-RYK Ab, and detected with an anti-mouse IgG or donkey-anti-sheep antibody conjugated with horse radish peroxidase. […]
The anti-human RYK mAbs, 2-D11 and 7-H10, appear specific for an amino terminal epitope of human Ryk (residues 46-57) that are distinct from those in mouse Ryk (FIG. 3); these mAbs also bind mutant forms of Ryk containing amino acid substitutions in human Ryk at positions that differ from that of the highly homologous mouse Ryk to assimilate mouse Ryk at the site of substitution, with amino acid sequence shown in FIG. 3, as shown by immunoblot analyses of recombinant extracellular proteins of human or mouse or each of the various mutant forms of human Ryk (FIG. 4) For this, the binding of 2-D11, 7-H10, or Sheep anti-RYK mAb was assessed using recombinant extracellular RYK proteins as specified in the Key. […]

[3] = target: T1, human RYK on the surface of human tumor …; assay: flow cytometry, MOLT4 cells (T-cell ALL), 5 ug/ml 2-D11-Alexa647; line unmarked (no staining)
Description: as §1, §2

[4] = target: T1, human RYK on the surface of human tumor …; assay: flow cytometry, BT549 cells (breast), 5 ug/ml 2-D11-Alexa647
Description: as §1, §2

[5] = target: T1, human RYK on the surface of human tumor …; assay: flow cytometry, PC3 cells (prostate), 5 ug/ml 2-D11-Alexa647; line unmarked (no staining)
Description: as §1, §2

[6] = target: T1, human RYK on the surface of human tumor …; assay: flow cytometry, MINO cells (mantle), 5 ug/ml 2-D11-Alexa647
Description: as §1, §2

[7] = target: T1, human RYK on the surface of human tumor …; assay: flow cytometry, NCI H929 cells (melanoma as printed), 5 ug/ml 2-D11-Alexa647; line unmarked (no staining)
Description: as §1, §2

[8] = target: T1, human RYK on the surface of human tumor …; assay: flow cytometry, NCI H1155 cells (lung), 5 ug/ml 2-D11-Alexa647; line unmarked (no staining)
Description: as §1, §2

[9] = target: T1, human RYK on the surface of human tumor …; assay: flow cytometry, EW36 cells (NHL), 5 ug/ml 2-D11-Alexa647; line unmarked (no staining)
Description: as §1, §2

[10] = target: T1, human RYK on the surface of human tumor …; assay: flow cytometry, MCF7 cells (breast), 5 ug/ml 2-D11-Alexa647; line unmarked (no staining)
Description: as §1, §2

[11] = target: T1, human RYK on the surface of human tumor …; assay: flow cytometry, H460 cells (lung), 5 ug/ml 2-D11-Alexa647
Description: as §1, §2

[12] = target: T1, human RYK on the surface of human tumor …; assay: flow cytometry, RAMOS cells (Burkitt NHL), 5 ug/ml 2-D11-Alexa647; line unmarked (no staining)
Description: as §1, §2

[13] = target: T1, human RYK on the surface of human tumor …; assay: flow cytometry, SH-SY5Y cells (brain), 5 ug/ml 2-D11-Alexa647
Description: as §1, §2

T1 sequence (P34925 46-607 limits assumed, form in doubt): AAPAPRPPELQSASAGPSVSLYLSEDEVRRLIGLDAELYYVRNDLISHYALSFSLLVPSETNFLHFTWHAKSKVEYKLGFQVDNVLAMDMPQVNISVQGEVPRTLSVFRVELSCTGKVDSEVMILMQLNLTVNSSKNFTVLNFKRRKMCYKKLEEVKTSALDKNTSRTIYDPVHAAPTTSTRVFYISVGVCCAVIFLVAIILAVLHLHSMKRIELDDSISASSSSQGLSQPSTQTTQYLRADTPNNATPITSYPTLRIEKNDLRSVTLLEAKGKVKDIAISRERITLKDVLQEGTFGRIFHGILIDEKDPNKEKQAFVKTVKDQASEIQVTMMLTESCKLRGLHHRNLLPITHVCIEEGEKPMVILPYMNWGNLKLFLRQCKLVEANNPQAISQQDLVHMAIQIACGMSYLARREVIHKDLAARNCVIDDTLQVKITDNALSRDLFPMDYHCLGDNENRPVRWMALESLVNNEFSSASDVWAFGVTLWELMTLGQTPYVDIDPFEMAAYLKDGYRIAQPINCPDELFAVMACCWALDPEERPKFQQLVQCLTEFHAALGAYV
T2 sequence (Q01887 35-211): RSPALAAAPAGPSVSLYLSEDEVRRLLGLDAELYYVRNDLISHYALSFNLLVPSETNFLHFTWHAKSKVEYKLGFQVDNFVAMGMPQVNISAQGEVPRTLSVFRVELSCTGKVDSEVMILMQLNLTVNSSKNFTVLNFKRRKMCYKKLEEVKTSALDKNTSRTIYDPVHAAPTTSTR

MFIR (MFI ratio to isotype control) [1]: 1.3
binding result [2]: no binding
MFIR (MFI ratio to isotype control) [3]: 0.9
MFIR (MFI ratio to isotype control) [4]: 3.9
MFIR (MFI ratio to isotype control) [5]: 1.2
MFIR (MFI ratio to isotype control) [6]: 2
MFIR (MFI ratio to isotype control) [7]: 1.2
MFIR (MFI ratio to isotype control) [8]: 1.3
MFIR (MFI ratio to isotype control) [9]: 1.1
MFIR (MFI ratio to isotype control) [10]: 1.4
MFIR (MFI ratio to isotype control) [11]: 1.5
MFIR (MFI ratio to isotype control) [12]: 1.1
MFIR (MFI ratio to isotype control) [13]: 2
B1: 2-D11 anti-human RYK mAb (antibody, V domains shown)
VH: QVQLKESGPGLVAPSQSLSITCSVSGFSLNDYGVNWVRQPPGKDLEWLGMIWGDGVTEYNSTLKSRLSISKDNSKSQVFLKMNNLQTEDTARYYCVRQGSGVWFAHWGQGTLVSVSS
VL: DVLVTQTPLSLPVSLGDQASISCRSSQTIVHSNGNTYLEWYLQKPGQSPKLLIYKVSNRFSGVPDRFSGSGSGTDFTLKISRVEAEDLGIYYCFQGSHVPYTFGGGTKLEIK
notes: Mouse hybridoma mAb, kappa light chain, detected with anti-mouse IgG; also called mAb 2-D11; 2-D11 anti-human RYK-Alexa647 conjugated mAb
